Starred links: 1 amine or outer side, 2 acyl side, 3 side chain; linkers in the order of their positions; H or OH if unused. Positions of bridges follow the written chain, without caps; N, C: chain ends. Non-standard residues stand in square brackets, D forms with d. Chains are numbered I, II in the order given. No end group written: not given here. *: point of attachment. TATA = O=C(CC[*:1])N1CN(C(=O)CC[*:2])CN(C(=O)CC[*:3])C1; 1Nal = N[C@@H](Cc1cccc2ccccc12)C(=O)O; Hyp = O=C(O)[C@@H]1C[C@@H](O)CN1; hArg = N=C(N)NCCCC[C@H](N)C(=O)O; Pent4ynoyl = C#CCCC(=O)*
T1: OX40 on OX40 Jurkat reporter cells (Promega CS197704) (UniProt P43489 29-277, limits assumed)
T1 sequence (looked up): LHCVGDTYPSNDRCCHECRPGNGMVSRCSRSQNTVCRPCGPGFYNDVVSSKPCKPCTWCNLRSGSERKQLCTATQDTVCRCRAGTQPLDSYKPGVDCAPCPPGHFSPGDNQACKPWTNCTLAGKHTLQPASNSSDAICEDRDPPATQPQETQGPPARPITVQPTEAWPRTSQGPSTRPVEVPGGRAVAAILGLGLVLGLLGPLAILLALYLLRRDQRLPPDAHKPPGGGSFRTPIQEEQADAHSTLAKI

B1: BCY12141, Nectin-4:OX40 heterotandem of BCY11607 [A-(SEQ ID NO: 6)-A-K(Pya)] and BCY8116-PEG12-N3 (peptide)
peptide 1: ACLYSPCWHPLNDCAK(Pent4ynoyl)
peptide 2: CP[1Nal][dD]CM[hArg]DWSTP[Hyp]WC
modifications: linker I:2-I:7-I:14, II:1-II:5-II:15 via TATA; not fully specified (bridges); also: PEG12 linker attached to chain 2, place not given here
B2: BCY12967, Nectin-4:OX40 heterotandem of a trifunctional PEG3 derivative of BCY8116 and BCY11607 (peptide)
peptide 1: ACLYSPCWHPLNDCAK(Pent4ynoyl)
peptide 2: CP[1Nal][dD]CM[hArg]DWSTP[Hyp]WC
modifications: linker I:2-I:7-I:14, II:1-II:5-II:15 via TATA; not fully specified (bridges); also: two copies of chain 1 (BCY11607) clicked via Lys(Pya) to the trifunctional PEG3 linker
B3: BCY12019, synthetic tetramer of four BCY11607 [A-(SEQ ID NO: 6)-A-K(Pya)] linked via C-terminal Lys(PYA) to spacer S1A (n = 23) and central hinge moiety A (TET) (peptide)
peptide: ACLYSPCWHPLNDCAK
modifications: linker 2-7-14 via TATA; not fully specified (residue 16); also: tetramer: four BCY11607 monomers clicked via S1A to central hinge A (TET)
B4: BCY12721, Nectin-4:OX40 heterotandem (taken as BCY12708 [Ac-A-(SEQ ID NO: 6)-A-K(Pya)] with a PEG5 derivative of BCY8116) (peptide)
peptide 1: Ac-ACLYSPCWHPLNDCAK(Pent4ynoyl)
peptide 2: CP[1Nal][dD]CM[hArg]DWSTP[Hyp]WC
modifications: linker I:2-I:7-I:14, II:1-II:5-II:15 via TATA; not fully specified; also: heterotandem: chain 1 Lys(Pya) linked to PEG5 derivative of chain 2

What was measured:
Assay in all cases: cell-based or functional assay
[1] = target: T1, OX40 on OX40 Jurkat reporter cells …
[2] = target: T1, OX40 on OX40 Jurkat reporter cells …; remark: listed apart in the source
[3] = target: T1, OX40 on OX40 Jurkat reporter cells …; remark: listed apart in the source

Binder	EC50 (nM), Promega OX40 cell-activity assay in co-culture with Nectin-4 positive 4T1-D02 tumor cells [1]	agonism in the Promega OX40 cell-activity assay relative to BCY10549 bound to streptavidin [2]	EC50 (nM), Promega OX40 cell-activity assay (NF-κB luciferase in OX40 Jurkat cells) [3]
B1	0.59 nM	–	–
B2	0.83 nM	–	–
B3	–	~10 fold	2.6 nM
B4	0.94 nM	–	–
